Laboratory results: paper PMC4245398

Target: vimentin (UniProt P08670)
Test: co-immunoprecipitation, FAK-FLAG and endogenous vimentin
Conditions: reference: WT FAK-FLAG; sites Y397

## focal adhesion kinase (FAK) (from UniProt Q05397) Y397F FAK-FLAG
  binding against the reference: weaker
